Data published in PMC7655804.

Molecular target: ferroportin from Philippine tarsier (Carlito syrichta / Tarsius syrichta) (Carlito syrichta (Tarsius syrichta, Philippine tarsier))

Row | initial rate of Co^2+ transport by TsFpn proteoliposomes with both hepcidin and 11F9 Fab on the external side | initial rate of Co^2+ transport by TsFpn proteoliposomes with hepcidin on both inside and outside of the liposomes | Substance
1 | 0.032 min⁻¹ |  | human hepcidin
2 |  | 0.043 min⁻¹ | human hepcidin (peptide)
